This passage reports oligomerisation and degradation_or_half_life results from article PMC7884448.

The nature of series [1]: SDD-AGE of MAVS aggregates, HEK293. The note with it: glycan lost; control: wild type.
Series [2] in a line: cycloheximide chase, HEK293 and A549. Particulars: glycan gained; control: without Thiamet-G.

B1: mitochondrial antiviral signaling protein (MAVS): S366A (protein)
parent chain: MPFAEDKTYKYICRNFSNFCNVDVVEILPYLPCLTARDQDRLRATCTLSGNRDTLWHLFNTLQRRPGWVEYFIAALRGCELVDLADEVASVYQSYQPRTSDRPPDPLEPPSLPAERPGPPTPAAAHSIPYNSCREKEPSYPMPVQETQAPESPGENSEQALQTLSPRAIPRNPDGGPLESSSDLAALSPLTSSGHQEQDTELGSTHTAGATSSLTPSRGPVSPSVSFQPLARSTPRASRLPGPTGSVVSTGTSFSSSSPGLASAGAAEGKQGAESDQAEPIICSSGAEAPANSLPSKVPTTLMPVNTVALKVPANPASVSTVPSKLPTSSKPPGAVPSNALTNPAPSKLPINSTRAGMVPSKVPTSMVLTKVSASTVPTDGSSRNEETPAAPTPAGATGGSSAWLDSSSENRGLGSELSKPGVLASQVDSPFSGCFEDLAISASTSLGMGPCHGPEENEYKSEGTFGIHVAENPSIQLLEGNPGPPADPDGGPRPQADRKFQEREVPCHRPSPGALWLQVAVTGVLVVTLLVVLYRRRLH
Consider B1, for which the oligomerisation entry in series [1] is on record as “no change”.

B2: mitochondrial antiviral signaling protein (MAVS): Thiamet-G (protein)
parent chain: B1 parent chain
As to B2, the degradation_or_half_life entry in series [2] is recorded as “no change”.
